Experiments:
Assay in all cases: peptide array of 15-mer IL-13 peptides
[1] = biological target: IL-13 peptide 1 (…) (human)
[2] = biological target: IL-13 peptide 10 (…) (human)
[3] = biological target: IL-13 peptide 11 (…) (human)
[4] = biological target: IL-13 peptide 12 (…) (human)
[5] = biological target: IL-13 peptide 13 (…) (human)
[6] = biological target: IL-13 peptide 14 (…) (human)
[7] = biological target: IL-13 peptide 15 (…) (human)
[8] = biological target: IL-13 peptide 16 (…) (human)
[9] = biological target: IL-13 peptide 17 (…) (human)
[10] = biological target: IL-13 peptide 18 (…) (human)
[11] = biological target: IL-13 peptide 19 (…) (human)
[12] = biological target: IL-13 peptide 2 (…) (human)
[13] = biological target: IL-13 peptide 20 (…) (human)
[14] = biological target: IL-13 peptide 21 (…) (human)
[15] = biological target: IL-13 peptide 22 (…) (human)
[16] = biological target: IL-13 peptide 23 (…) (human)
[17] = biological target: IL-13 peptide 24 (…) (human)
[18] = biological target: IL-13 peptide 25 (…) (human)
[19] = biological target: IL-13 peptide 26 (…) (human)
[20] = biological target: IL-13 peptide 27 (…) (human)
[21] = biological target: IL-13 peptide 28 (…) (human)
[22] = biological target: IL-13 peptide 29 (…) (human)
[23] = biological target: IL-13 peptide 3 (…) (human)
[24] = biological target: IL-13 peptide 30 (…) (human)
[25] = biological target: T1, IL-13 peptide 6 (EELVNITQNQKAPLC) (human)
T1 peptide: EELVNITQNQKAPLC
Experimental: (§1) The sequence of IL-13 was probed at the peptide level to identify the binding site with ANTIBODY 01951/G12. Thirty four 15-mer peptides were synthesized in order to scan the entire sequence with 12 residue overlap starting from the N-terminus. The synthesis of the peptides, preparation of the peptide-array slides, incubation with antibodies and data analysis where done as described by Maksimov et al. (PLoS ONE 7(3): e34212).
(§2) The binding signal intensity (light unit) observed is reported for each peptide, in column 1 against a control unrelated human antibody and in column 2 against ANTIBODY 01951/G12. Signals above 10000 Light Units are considered as being significant. 2 overlapping peptides in the set of the 34 peptides produced a signal above that threshold, peptide 22 ([…]) (SEQ ID NO: 31) and peptide 23 ([…]) (SEQ ID NO: 32). The overlapping sequence between both peptides is […] (SEQ ID NO: 33).

[26] = biological target: T2, IL-13 peptide 7 (VNITQNQKAPLCNGS) (human)
T2 peptide: VNITQNQKAPLCNGS
Experimental: as §1, §2

[27] = biological target: T3, IL-13 peptide 8 (TQNQKAPLCNGSMVW) (human)
T3 peptide: TQNQKAPLCNGSMVW
Experimental: as §1, §2

[28] = biological target: T4, IL-13 peptide 9 (QKAPLCNGSMVWSIN) (human)
T4 peptide: QKAPLCNGSMVWSIN
Experimental: as §1, §2

[29] = biological target: T5, IL-13 peptide 10 (PLCNGSMVWSINLTA) (human)
T5 peptide: PLCNGSMVWSINLTA
Experimental: as §1, §2

[30] = biological target: T6, IL-13 peptide 11 (NGSMVWSINLTAGMY) (human)
T6 peptide: NGSMVWSINLTAGMY
Experimental: as §1, §2

[31] = biological target: T7, IL-13 peptide 12 (MVWSINLTAGMYCAA) (human)
T7 peptide: MVWSINLTAGMYCAA
Experimental: as §1, §2

[32] = biological target: T8, IL-13 peptide 13 (SINLTAGMYCAALES) (human)
T8 peptide: SINLTAGMYCAALES
Experimental: as §1, §2

[33] = biological target: T9, IL-13 peptide 14 (LTAGMYCAALESLIN) (human)
T9 peptide: LTAGMYCAALESLIN
Experimental: as §1, §2

[34] = biological target: T10, IL-13 peptide 15 (GMYCAALESLINVSG) (human)
T10 peptide: GMYCAALESLINVSG
Experimental: as §1, §2

[35] = biological target: T11, IL-13 peptide 16 (CAALESLINVSGCSA) (human)
T11 peptide: CAALESLINVSGCSA
Experimental: as §1, §2

[36] = biological target: T12, IL-13 peptide 17 (LESLINVSGCSAIEK) (human)
T12 peptide: LESLINVSGCSAIEK
Experimental: as §1, §2

[37] = biological target: T13, IL-13 peptide 18 (LINVSGCSAIEKTQR) (human)
T13 peptide: LINVSGCSAIEKTQR
Experimental: as §1, §2

[38] = biological target: T14, IL-13 peptide 19 (VSGCSAIEKTQRMLS) (human)
T14 peptide: VSGCSAIEKTQRMLS
Experimental: as §1, §2

[39] = biological target: T15, IL-13 peptide 20 (CSAIEKTQRMLSGFC) (human)
T15 peptide: CSAIEKTQRMLSGFC
Experimental: as §1, §2

[40] = biological target: T16, IL-13 peptide 21 (IEKTQRMLSGFCPHK) (human)
T16 peptide: IEKTQRMLSGFCPHK
Experimental: as §1, §2

[41] = biological target: T17, IL-13 peptide 22 (TQRMLSGFCPHKVSA) (human)
T17 peptide: TQRMLSGFCPHKVSA
Experimental: as §1, §2

[42] = biological target: T18, IL-13 peptide 23 (MLSGFCPHKVSAGQF) (human)
T18 peptide: MLSGFCPHKVSAGQF
Experimental: as §1, §2

[43] = biological target: T19, IL-13 peptide 25 (PHKVSAGQFSSLHVR) (human)
T19 peptide: PHKVSAGQFSSLHVR
Experimental: as §1, §2

[44] = biological target: T20, IL-13 peptide 26 (VSAGQFSSLHVRDTK) (human)
T20 peptide: VSAGQFSSLHVRDTK
Experimental: as §1, §2

[45] = biological target: T21, IL-13 peptide 27 (GQFSSLHVRDTKIEV) (human)
T21 peptide: GQFSSLHVRDTKIEV
Experimental: as §1, §2

[46] = biological target: T22, IL-13 peptide 28 (SSLHVRDTKIEVAQF) (human)
T22 peptide: SSLHVRDTKIEVAQF
Experimental: as §1, §2

[47] = biological target: T23, IL-13 peptide 29 (HVRDTKIEVAQFVKD) (human)
T23 peptide: HVRDTKIEVAQFVKD
Experimental: as §1, §2

[48] = biological target: T24, IL-13 peptide 30 (DTKIEVAQFVKDLLL) (human)
T24 peptide: DTKIEVAQFVKDLLL
Experimental: as §1, §2

[49] = biological target: T25, IL-13 peptide 31 (IEVAQFVKDLLLHLK) (human)
T25 peptide: IEVAQFVKDLLLHLK
Experimental: as §1, §2

[50] = biological target: T26, IL-13 peptide 32 (AQFVKDLLLHLKKLF) (human)
T26 peptide: AQFVKDLLLHLKKLF
Experimental: as §1, §2

[51] = biological target: T27, IL-13 peptide 33 (VKDLLLHLKKLFREG) (human)
T27 peptide: VKDLLLHLKKLFREG
Experimental: as §1, §2

[52] = biological target: T28, IL-13 peptide 34 (LLLHLKKLFREGRFN) (human)
T28 peptide: LLLHLKKLFREGRFN
Experimental: as §1, §2

[53] = biological target: T29, IL-13 peptide 1 (SPGPVPPSTALRELI) (human)
T29 peptide: SPGPVPPSTALRELI
Experimental: as §1, §2

[54] = biological target: T30, IL-13 peptide 2 (PVPPSTALRELIEEL) (human)
T30 peptide: PVPPSTALRELIEEL
Experimental: as §1, §2

[55] = biological target: T31, IL-13 peptide 3 (PSTALRELIEELVNI) (human)
T31 peptide: PSTALRELIEELVNI
Experimental: as §1, §2

[56] = biological target: T32, IL-13 peptide 4 (ALRELIEELVNITQN) (human)
T32 peptide: ALRELIEELVNITQN
Experimental: as §1, §2

[57] = biological target: T33, IL-13 peptide 5 (ELIEELVNITQNQKA) (human)
T33 peptide: ELIEELVNITQNQKA
Experimental: as §1, §2

control unrelated human antibody
Corrected Mean signal intensity (Light Unit) [1]: 44.3 Light Unit | Corrected Mean signal intensity (Light Unit) [2]: -6.5 Light Unit | Corrected Mean signal intensity (Light Unit) [3]: -5 Light Unit | Corrected Mean signal intensity (Light Unit) [4]: 19 Light Unit | Corrected Mean signal intensity (Light Unit) [5]: -1.5 Light Unit | Corrected Mean signal intensity (Light Unit) [6]: 1 Light Unit | Corrected Mean signal intensity (Light Unit) [7]: 1 Light Unit | Corrected Mean signal intensity (Light Unit) [8]: 1 Light Unit | Corrected Mean signal intensity (Light Unit) [9]: 18.7 Light Unit | Corrected Mean signal intensity (Light Unit) [10]: 12.5 Light Unit | Corrected Mean signal intensity (Light Unit) [11]: 15 Light Unit | Corrected Mean signal intensity (Light Unit) [12]: -9 Light Unit | Corrected Mean signal intensity (Light Unit) [13]: 26 Light Unit | Corrected Mean signal intensity (Light Unit) [14]: 101 Light Unit | Corrected Mean signal intensity (Light Unit) [15]: 123 Light Unit | Corrected Mean signal intensity (Light Unit) [16]: 23 Light Unit | Corrected Mean signal intensity (Light Unit) [17]: 3.3 Light Unit | Corrected Mean signal intensity (Light Unit) [18]: -24.7 Light Unit | Corrected Mean signal intensity (Light Unit) [19]: 3.7 Light Unit | Corrected Mean signal intensity (Light Unit) [20]: -10.5 Light Unit | Corrected Mean signal intensity (Light Unit) [21]: -6 Light Unit | Corrected Mean signal intensity (Light Unit) [22]: -17 Light Unit | Corrected Mean signal intensity (Light Unit) [23]: -7.3 Light Unit | Corrected Mean signal intensity (Light Unit) [24]: -13 Light Unit

B1: ANTIBODY 01951/G12 (antibody, human IgG1, kappa, V domains shown)
VH: EVQLVESGGGVVQPGRSLRLSCAASGFTFSSYGMHWVRQAPGKGLEWVAIIWYDGSNKYYADSVKGRFTISRDNSKNTLYLQMNSLRAEDTAVYYCARLWFGDLDAFDIWGQGTMVTVSS
VL: EIVLTQSPATLSLSPGERAILSCRAGQSVSSYLVWYQQKPGQAPRLLIYDASNRATGIPARFSGSGSGTDFTLTISSLEPEDFAVYYCQQRSSWPPVYTFGQGTKLEIKR
notes: also called target antibody
Corrected Mean signal intensity (Light Unit) [17]: 493 Light Unit | Corrected Mean signal intensity (Light Unit) [25]: 1 Light Unit | binding result [25]: no binding (tested: 10000 Light Units) | Corrected Mean signal intensity (Light Unit) [26]: -405 Light Unit | Corrected Mean signal intensity (Light Unit) [27]: -350 Light Unit | Corrected Mean signal intensity (Light Unit) [28]: -518 Light Unit | Corrected Mean signal intensity (Light Unit) [29]: -982 Light Unit | Corrected Mean signal intensity (Light Unit) [30]: -132 Light Unit | Corrected Mean signal intensity (Light Unit) [31]: 56.5 Light Unit | binding result [31]: no binding (tested: 10000 Light Units) | Corrected Mean signal intensity (Light Unit) [32]: -757 Light Unit | Corrected Mean signal intensity (Light Unit) [33]: -99.7 Light Unit | Corrected Mean signal intensity (Light Unit) [34]: -987 Light Unit | Corrected Mean signal intensity (Light Unit) [35]: -587 Light Unit | Corrected Mean signal intensity (Light Unit) [36]: -340 Light Unit | Corrected Mean signal intensity (Light Unit) [37]: -539 Light Unit | Corrected Mean signal intensity (Light Unit) [38]: -830 Light Unit | Corrected Mean signal intensity (Light Unit) [39]: -721 Light Unit | Corrected Mean signal intensity (Light Unit) [40]: 2210 Light Unit | Corrected Mean signal intensity (Light Unit) [41]: 38600 Light Unit | Corrected Mean signal intensity (Light Unit) [42]: 48100 Light Unit | Corrected Mean signal intensity (Light Unit) [43]: -386 Light Unit | Corrected Mean signal intensity (Light Unit) [44]: -778 Light Unit | Corrected Mean signal intensity (Light Unit) [45]: -291 Light Unit | Corrected Mean signal intensity (Light Unit) [46]: -170 Light Unit | Corrected Mean signal intensity (Light Unit) [47]: -734 Light Unit | Corrected Mean signal intensity (Light Unit) [48]: -438 Light Unit | Corrected Mean signal intensity (Light Unit) [49]: -810 Light Unit | Corrected Mean signal intensity (Light Unit) [50]: -746 Light Unit | Corrected Mean signal intensity (Light Unit) [51]: -203 Light Unit | Corrected Mean signal intensity (Light Unit) [52]: 7150 Light Unit | Corrected Mean signal intensity (Light Unit) [53]: -1070 Light Unit | Corrected Mean signal intensity (Light Unit) [54]: -1130 Light Unit | Corrected Mean signal intensity (Light Unit) [55]: -210 Light Unit | Corrected Mean signal intensity (Light Unit) [56]: -207 Light Unit | Corrected Mean signal intensity (Light Unit) [57]: -131 Light Unit

Reference: patent US20170029894A1 (Novartis, published 2017)
